{"source": "patent US11419945B2", "about": "“Antigen binding proteins” (Glaxo Group Limited, priority 2011, dated 2022)", "molecules": {"B1": {"name": "S307118G03 humanised H4L1: humanised S307118G03, VH H4 (SEQ ID NO:85) + VL L1 (SEQ ID NO:91) (antibody, V domains shown)", "VH": "QVQLVQSGAEVKKPGSSVKVSCKASGYTFTDYYMKWVRQAPGQGLEWMGEIYPNNGGITYNQKFKGRVTITADKSTSTAYMELSSLRSEDTAVYYCADGYEFVYWGQGTLVTVSS", "VL": "DIQMTQSPSSLSASVGDRVTITCSASQGISNYLNWYQQKPGKAPKLLIYYTSSLHSGVPSRFSGSGSGTDYTLTISSLQPEDFATYYCQQYSKLPWTFGQGTKLEIKR", "modifications": "Humansed antibody sequence"}, "B2": {"name": "CA8 humanised J5M2: humanised CA8 anti-BCMA antibody, VH J5 (SEQ ID NO:21) + VL M2 (SEQ ID NO:35) (antibody, V domains shown)", "VH": "QVQLVQSGAEVKKPGSSVKVSCKGSGYTFTNYWMHWVRQAPGQGLEWMGATYRGHSDTYYNQKFKGRVTITADTSTSTAYMELSSLRSEDTAVYYCTRGAIYDGYDVLDNWGQGTLVTVSS", "VL": "B1 VL with M4L, G28D, K45E, L47V, S53N, S92R", "modifications": "Humansed antibody sequence"}, "B3": {"name": "CA8 humanised J3M2: humanised CA8 anti-BCMA antibody, VH J3 (SEQ ID NO:17) + VL M2 (SEQ ID NO:35) (antibody, V domains shown)", "VH": "B2 VH with D103N", "VL": "B1 VL with M4L, G28D, K45E, L47V, S53N, S92R", "modifications": "Humansed antibody sequence"}, "B4": {"name": "S307118G03 humanised H3L0: humanised S307118G03, VH H3 (SEQ ID NO:83) + VL L0 (SEQ ID NO:89) (antibody, V domains shown)", "VH": "B1 VH with M48I, V68A, I70L, A72V, D98N", "VL": "B1 VL with Y71F", "modifications": "Humansed antibody sequence"}, "B5": {"name": "CA8 humanised J2M2: humanised CA8 anti-BCMA antibody, VH J2 (SEQ ID NO:15) + VL M2 (SEQ ID NO:35) (antibody, V domains shown)", "VH": "B2 VH with G24A, T74K, D103N", "VL": "B1 VL with M4L, G28D, K45E, L47V, S53N, S92R", "modifications": "Humansed antibody sequence"}, "B6": {"name": "S307118G03 humanised H2L1: humanised S307118G03, VH H2 (SEQ ID NO:81) + VL L1 (SEQ ID NO:91) (antibody, V domains shown)", "VH": "B1 VH with D98N", "VL": "B1 VL", "modifications": "Humansed antibody sequence"}, "B7": {"name": "CA8 humanised J5M1: humanised CA8 anti-BCMA antibody, VH J5 (SEQ ID NO:21) + VL M1 (SEQ ID NO:33) (antibody, V domains shown)", "VH": "B2 VH", "VL": "B1 VL with G28D, S53N, S92R", "modifications": "Humansed antibody sequence"}, "B8": {"name": "CA8 humanised J0M1: humanised CA8 anti-BCMA antibody, VH J0 (SEQ ID NO:11) + VL M1 (SEQ ID NO:33) (antibody, V domains shown)", "VH": "B2 VH with G24A, Y27G, T30S, T74K, T97A, D103N", "VL": "B1 VL with G28D, S53N, S92R", "modifications": "Humansed antibody sequence"}, "B9": {"name": "CA8 humanised J3M1: humanised CA8 anti-BCMA antibody, VH J3 (SEQ ID NO:17) + VL M1 (SEQ ID NO:33) (antibody, V domains shown)", "VH": "B2 VH with D103N", "VL": "B1 VL with G28D, S53N, S92R", "modifications": "Humansed antibody sequence"}, "B10": {"name": "CA8 humanised J4M2: humanised CA8 anti-BCMA antibody, VH J4 (SEQ ID NO:19) + VL M2 (SEQ ID NO:35) (antibody, V domains shown)", "VH": "B2 VH with M48I, V68A, I70L, D103N", "VL": "B1 VL with M4L, G28D, K45E, L47V, S53N, S92R", "modifications": "Humansed antibody sequence"}, "B11": {"name": "CA8 humanised J1M1: humanised CA8 anti-BCMA antibody, VH J1 (SEQ ID NO:13) + VL M1 (SEQ ID NO:33) (antibody, V domains shown)", "VH": "B2 VH with G24A, T74K, T97A, D103N", "VL": "B1 VL with G28D, S53N, S92R", "modifications": "Humansed antibody sequence"}, "B12": {"name": "CA8 humanised J0M2: humanised CA8 anti-BCMA antibody, VH J0 (SEQ ID NO:11) + VL M2 (SEQ ID NO:35) (antibody, V domains shown)", "VH": "B2 VH with G24A, Y27G, T30S, T74K, T97A, D103N", "VL": "B1 VL with M4L, G28D, K45E, L47V, S53N, S92R", "modifications": "Humansed antibody sequence"}, "B13": {"name": "S307118G03 humanised H3L1: humanised S307118G03, VH H3 (SEQ ID NO:83) + VL L1 (SEQ ID NO:91) (antibody, V domains shown)", "VH": "B1 VH with M48I, V68A, I70L, A72V, D98N", "VL": "B1 VL", "modifications": "Humansed antibody sequence"}, "B14": {"name": "CA8 humanised J4M1: humanised CA8 anti-BCMA antibody, VH J4 (SEQ ID NO:19) + VL M1 (SEQ ID NO:33) (antibody, V domains shown)", "VH": "B2 VH with M48I, V68A, I70L, D103N", "VL": "B1 VL with G28D, S53N, S92R", "modifications": "Humansed antibody sequence"}, "B15": {"name": "S307118G03 humanised H2L0: humanised S307118G03, VH H2 (SEQ ID NO:81) + VL L0 (SEQ ID NO:89) (antibody, V domains shown)", "VH": "B1 VH with D98N", "VL": "B1 VL with Y71F", "modifications": "Humansed antibody sequence"}, "B16": {"name": "CA8 humanised J1M2: humanised CA8 anti-BCMA antibody, VH J1 (SEQ ID NO:13) + VL M2 (SEQ ID NO:35) (antibody, V domains shown)", "VH": "B2 VH with G24A, T74K, T97A, D103N", "VL": "B1 VL with M4L, G28D, K45E, L47V, S53N, S92R", "modifications": "Humansed antibody sequence"}, "B17": {"name": "CA8 humanised J2M1: humanised CA8 anti-BCMA antibody, VH J2 (SEQ ID NO:15) + VL M1 (SEQ ID NO:33) (antibody, V domains shown)", "VH": "B2 VH with G24A, T74K, D103N", "VL": "B1 VL with G28D, S53N, S92R", "modifications": "Humansed antibody sequence"}}, "note": "Changes are numbered by the printed parent chain.", "data": [{"biological_target": "T1, Human in house BCMA (Homo sapiens, UniProt Q02223)", "T1 construct": "CD33 signal peptide (N); TEV site (internal); Fc (C); made in house", "T1 sequence (Q02223 with tags, fused parts or gaps limits assumed)": "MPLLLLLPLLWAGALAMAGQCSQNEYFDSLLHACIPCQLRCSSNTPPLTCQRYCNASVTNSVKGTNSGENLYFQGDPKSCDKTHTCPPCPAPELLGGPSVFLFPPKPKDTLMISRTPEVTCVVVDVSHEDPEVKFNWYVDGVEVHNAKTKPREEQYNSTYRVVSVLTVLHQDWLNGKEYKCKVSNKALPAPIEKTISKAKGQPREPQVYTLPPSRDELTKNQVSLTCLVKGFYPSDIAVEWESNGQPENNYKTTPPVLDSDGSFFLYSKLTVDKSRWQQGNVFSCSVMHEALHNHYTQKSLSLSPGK", "test": "ProteOn analysis of CA8 chimeric and humanised constructs, human in house BCMA", "format": "binding", "conditions": "Run 1, Human in house BCMA, ProteOn, 25° C.", "procedure": "(§1) The initial screen of CA8 chimeric and humanised variants was carried out on the ProteOn XPR36 (Biorad). The method was as follows; Protein A was immobilised on a GLC chip (Biorad, Cat No: 176-5011) by primary amine coupling, CA8 variants were then captured on this surface and recombinant human BCMA (in house or commercial US Biological, B0410) materials (run 2 only)) passed over at 256, 64, 16, 4, 1 nM with a 0 nM injection (i.e. buffer alone) used to double reference the binding curves, the buffer used is the HBS-EP buffer. 50 mM NaOH was used to regenerate the capture surface. The data was fitted to the 1:1 model using the analysis software inherent to the ProteOn XPR36. Run 1 corresponds to the first screen of humanised CA8 variants (JO to J5 series) and run 2 to the second screen of humanised CA8 variants (J5 to J9 series). Both runs were carried out at 25° C.", "values": [{"molecule": "B1", "KD": "No"}]}, {"biological_target": "T1, Human in house BCMA", "test": "ProteOn analysis of CA8 chimeric and humanised constructs, human in house BCMA", "format": "binding", "conditions": "Run 1, Human in house BCMA, ProteOn, 25° C.; in M-1s-1 (unit assumed)", "procedure": "as §1", "values": [{"molecule": "B2", "ka": "2.67E+05"}, {"molecule": "B3", "ka": "2.66E+05"}, {"molecule": "B4", "ka": "2.86E+05"}, {"molecule": "B5", "ka": "2.05E+05"}, {"molecule": "B6", "ka": "3.38E+05"}, {"molecule": "B7", "ka": "2.97E+05"}, {"molecule": "B8", "ka": "2.31E+05"}, {"molecule": "B9", "ka": "2.85E+05"}, {"molecule": "B10", "ka": "2.51E+05"}, {"molecule": "B11", "ka": "2.27E+05"}, {"molecule": "B12", "ka": "2.25E+05"}, {"molecule": "B13", "ka": "4.69E+05"}, {"molecule": "B14", "ka": "2.54E+05"}, {"molecule": "B15", "ka": "3.78E+05"}, {"molecule": "B16", "ka": "2.15E+05"}, {"molecule": "B17", "ka": "2.04E+05"}]}, {"biological_target": "T1, Human in house BCMA", "test": "ProteOn analysis of CA8 chimeric and humanised constructs, human in house BCMA", "format": "binding", "conditions": "Run 1, Human in house BCMA, ProteOn, 25° C.; in s-1 (unit assumed)", "procedure": "as §1", "values": [{"molecule": "B2", "kd": "3.21E−05"}, {"molecule": "B3", "kd": "9.64E−05"}, {"molecule": "B4", "kd": "1.52E−03"}, {"molecule": "B5", "kd": "9.87E−05"}, {"molecule": "B6", "kd": "2.15E−03"}, {"molecule": "B7", "kd": "4.32E−05"}, {"molecule": "B8", "kd": "8.60E−05"}, {"molecule": "B9", "kd": "1.25E−04"}, {"molecule": "B10", "kd": "7.06E−05"}, {"molecule": "B11", "kd": "3.43E−04"}, {"molecule": "B12", "kd": "6.97E−05"}, {"molecule": "B13", "kd": "2.28E−03"}, {"molecule": "B14", "kd": "7.04E−05"}, {"molecule": "B15", "kd": "2.41E−03"}, {"molecule": "B16", "kd": "2.46E−04"}, {"molecule": "B17", "kd": "1.72E−04"}]}, {"biological_target": "T1, Human in house BCMA", "test": "ProteOn analysis of CA8 chimeric and humanised constructs, human in house BCMA", "format": "binding", "conditions": "Run 2, ProteOn, recombinant human BCMA; no affinity values obtained", "procedure": "as §1", "values": [{"molecule": "B2", "off rate": "beyond the sensitivity of the assay"}, {"molecule": "B7", "off rate": "beyond the sensitivity of the assay"}]}, {"biological_target": "Cyno in house BCMA", "sequence (as listed by the source)": "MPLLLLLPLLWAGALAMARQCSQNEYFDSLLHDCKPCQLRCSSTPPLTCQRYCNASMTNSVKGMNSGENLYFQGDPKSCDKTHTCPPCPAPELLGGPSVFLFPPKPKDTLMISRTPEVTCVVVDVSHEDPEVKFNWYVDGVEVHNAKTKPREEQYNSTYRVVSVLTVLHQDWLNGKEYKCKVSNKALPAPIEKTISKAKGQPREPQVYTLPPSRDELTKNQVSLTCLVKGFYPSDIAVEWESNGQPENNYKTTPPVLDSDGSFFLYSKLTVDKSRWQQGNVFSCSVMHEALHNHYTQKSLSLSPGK", "test": "ProteOn analysis of CA8 chimeric and humanised constructs, cyno in house BCMA", "format": "binding", "conditions": "Run 1, Cyno in house BCMA, 25° C.", "values": [{"molecule": "B4", "KD": "No"}, {"molecule": "B1", "KD": "No"}, {"molecule": "B6", "KD": "No"}, {"molecule": "B13", "KD": "No"}, {"molecule": "B15", "KD": "No"}]}, {"system": "Cyno in house BCMA", "test": "ProteOn analysis of CA8 chimeric and humanised constructs, cyno in house BCMA", "format": "binding", "conditions": "Run 1, Cyno in house BCMA, 25° C., in M-1s-1 (unit assumed)", "values": [{"molecule": "B2", "ka": "4.30E+05"}, {"molecule": "B3", "ka": "3.69E+05"}, {"molecule": "B5", "ka": "2.98E+05"}, {"molecule": "B7", "ka": "4.81E+05"}, {"molecule": "B8", "ka": "3.32E+05"}, {"molecule": "B9", "ka": "4.04E+05"}, {"molecule": "B10", "ka": "3.44E+05"}, {"molecule": "B11", "ka": "3.33E+05"}, {"molecule": "B12", "ka": "3.26E+05"}, {"molecule": "B14", "ka": "3.50E+05"}, {"molecule": "B16", "ka": "3.19E+05"}, {"molecule": "B17", "ka": "2.96E+05"}]}, {"biological_target": "Cyno in house BCMA", "test": "ProteOn analysis of CA8 chimeric and humanised constructs, cyno in house BCMA", "format": "binding", "conditions": "Run 1, Cyno in house BCMA, 25° C., in s-1 (unit assumed)", "values": [{"molecule": "B2", "kd": "4.70E−05"}, {"molecule": "B3", "kd": "5.87E−05"}, {"molecule": "B5", "kd": "3.17E−05"}, {"molecule": "B7", "kd": "5.41E−05"}, {"molecule": "B8", "kd": "1.67E−04"}, {"molecule": "B9", "kd": "7.93E−05"}, {"molecule": "B10", "kd": "6.15E−05"}, {"molecule": "B11", "kd": "1.47E−04"}, {"molecule": "B12", "kd": "1.84E−04"}, {"molecule": "B14", "kd": "7.10E−05"}, {"molecule": "B16", "kd": "9.67E−05"}, {"molecule": "B17", "kd": "6.46E−05"}]}]}
